Reference: US20220177587A1, “METHODS AND USES OF VARIANT CD80 FUSION PROTEINS AND RELATED CONSTRUCTS” (Alpine Immune Sciences, Inc., priority 2018, published 2022)

Columns and labels:
Pan T cells = assay: Primary T cell stimulation assay with K562/OKT3 +/- PD-L1 (IL-2, IFN-gamma, proliferation); format: cell-based, human; parameters: IL-2 release, K562/OKT3 (No PD-L1), CD80-IgV Fc (effector), 1 nM / IL-2 release, K562/OKT3 (No PD-L1), CD80-IgV Fc (effector), 10 nM / IL-2 release, K562/OKT3 (No PD-L1), CD80-IgV Fc (effector), 100 nM / IL-2 release, K562/OKT3/PD-L1, CD80-IgV Fc (inert), 1 nM / IL-2 release, K562/OKT3/PD-L1, CD80-IgV Fc (inert), 10 nM / IL-2 release, K562/OKT3/PD-L1, CD80-IgV Fc (inert), 100 nM: unit not given here; conditions: 72 hr
Method: IFN-gamma, IL-2 and proliferation were determined after 72 hr. incubation.

CD28 [1] = biological target: T1, CD28 (Homo sapiens, UniProt P10747); assay: Flow binding to Jurkat/IL2 reporter cells (CD28); parameters: host or cells: Jurkat cells expressing an IL-2-luciferase reporter; conditions: for CD28 Fold change to WT CD80: MFI at 33.3 nM relative to CD80 WT IgV-Fc
Method: (§1) Binding of selected immunomodulatory fusion proteins to cognate binding partners was assessed. […] Cells were sorted in a Bio-Rad S3 Cell Sorter (Bio-Rad Corp., USA) to >98% purity. Jurkat/IL2 reporter cells, which endogenously express CD28, were used to detect binding to CD28.
(§2) For staining and analysis by flow cytometry, 100,000 cells of appropriate transfected cells were plated in 96-well round bottom plates. Cells were spun down and resuspended in staining buffer (phosphate buffered saline (PBS), 1% bovine serum albumin (BSA), and 0.1% sodium azide) for 20 minutes to block non-specific binding. […] Primary staining was performed on ice for 45 minutes, before washing cells in staining buffer twice. Phycoerythrin (PE)-conjugated anti-human Fc (Jackson ImmunoResearch, USA) was diluted 1:150, added to cells and incubated another 30 minutes on ice. Cells were then washed twice with 150 μL/well stain buffer, fixed in 2% formaldehyde/PBS, and analyzed on Intellicyt flow cytometer (Intellicyt Corp., USA). PE Mean Fluorescence Intensity (MFI) was calculated for each cell type with FlowJo Version 10 software (FlowJo LLC, USA).
(§3) Binding assays were carried out to assess the specificity and affinity of multivalent proteins to cell-expressed CTLA-4, CD28, and PD-L1 counter structures.
(§4) The EC50 for binding also was determined.

CD28 [2] = biological target: T1, CD28; assay: Jurkat/IL2 + CHO/OKT3 +/- PD-L1 reporter assay: PD-L1-dependent CD28 costimulation; format: cell-based; parameters: host or cells: Jurkat cells expressing an IL-2-luciferase reporter; conditions: Jurkat/IL2 + CHO/OKT3/PD-L1
Method: Jurkat cells were then plated at 50 μL/well for a total of 100,000 cells per well.
To each well, 25 μL of test protein was added to the Jurkat cells. […] The Jurkat cells with test or control proteins were incubated for 15 minutes at room temperature. CHO-derived artificial antigen presenting cells (aAPC) displaying transduced cell surface anti-CD3 single chain Fv (OKT3) (i.e., no PD-L1), or OKT3 and PD-L1 (i.e., +PD-L1), were brought to 0.8×10^6 cells/mL, and 25 μL of cells were added to each well, bringing the final volume of each well to 100 μL. […] Jurkat cells and CHO cells were incubated for 5 hours at 37 degrees Celsius in a humidified 5% CO2 incubation chamber. Plates were then removed from the incubator and acclimated to room temperature for 15 minutes. 100 μL of a cell lysis and luciferase substrate solution (BioGlo luciferase reagent, Promega) were added to each well and the plates were incubated on an orbital shaker for 10 minutes. Luminescence was measured with a 1 second per well integration time using a BioTek Cytation luminometer, and a relative luminescence value (RLU) was determined for each test sample.

huCTLA4 = huCTLA4 (Homo sapiens, UniProt P16410); assay: Flow binding to CHO cells stably expressing CTLA4; parameters: huCTLA4 and huPD-L1, full-length mammalian surface expression constructs were generated; expressed in transfected cells; host or cells: CHO cells, lentiviral transduction, sorted to >98% purity; conditions: for CTLA4 MFI at 33.3 nM: CHO cells stably expressing CTLA4; for CTLA4 Fold change to WT CD80: MFI at 33.3 nM relative to CD80 WT IgV-Fc
Sequence of huCTLA4 (P16410 36-223): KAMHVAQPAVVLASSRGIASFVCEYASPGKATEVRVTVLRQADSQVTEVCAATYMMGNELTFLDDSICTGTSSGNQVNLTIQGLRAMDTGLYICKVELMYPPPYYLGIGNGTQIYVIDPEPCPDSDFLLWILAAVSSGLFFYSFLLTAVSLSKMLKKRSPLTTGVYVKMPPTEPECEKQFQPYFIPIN
Method: as §1, §2, §3, §4

huPD-L1 = huPD-L1 (Homo sapiens, UniProt Q9NZQ7); assay: Flow binding to CHO cells stably expressing PD-L1; parameters: huCTLA4 and huPD-L1, full-length mammalian surface expression constructs were generated; expressed in transfected cells; host or cells: CHO cells, lentiviral transduction, sorted to >98% purity; conditions: for PD-L1 MFI at 33.3 nM: CHO cells stably expressing PD-L1; for PD-L1 Fold change to WT CD80: MFI at 33.3 nM relative to CD80 WT IgV-Fc; for Ratio of PDL1:CD28: ratio of MFI at 33.3 nM
Sequence of huPD-L1 (Q9NZQ7 19-290): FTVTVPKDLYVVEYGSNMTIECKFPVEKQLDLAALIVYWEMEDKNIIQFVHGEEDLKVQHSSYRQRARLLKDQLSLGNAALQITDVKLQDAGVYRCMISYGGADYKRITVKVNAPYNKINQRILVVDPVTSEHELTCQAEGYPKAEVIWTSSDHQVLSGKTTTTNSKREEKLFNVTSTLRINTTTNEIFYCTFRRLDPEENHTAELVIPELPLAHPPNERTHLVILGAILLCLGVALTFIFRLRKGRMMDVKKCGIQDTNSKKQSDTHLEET
Method: as §1, §2, §3, §4

[3] = Table E20, Jurkats (CD28), 33.3 nM
[4] = Table E23, CD80 IgV-Fc (inert) at 33.3 nM

Substance | CD28 MFI at 33.3 nM (CD28 [1]; [3]) | CD28 Fold change to WT CD80 (CD28 [1]; Table E20) | Fold Increase over WT CD80-IgV-Fe (CD28 [2]; Table E22, 5.0 nM) | Relative Luciferase Units (RLU), CD80 Conc 5.0 nM (CD28 [2]; Table E22, CD80 Conc 5.0 nM) | CTLA4 MFI at 33.3 nM (huCTLA4; Table E20, 33.3 nM) | CTLA4 Fold change to WT CD80 (huCTLA4; Table E20) | PD-L1 MFI at 33.3 nM (huPD-L1; Table E20, 33.3 nM) | PD-L1 Fold change to WT CD80 (huPD-L1; Table E20) | Ratio of PDL1:CD28 (huPD-L1; Table E20) | also measured
Inert Fc Control | – | – | – | – | – | – | – | – | – | IL-2 release, K562/OKT3 (No PD-L1), CD80-IgV Fc (effector), 1 nM (Pan T cells; Pan T cells + K562/OKT3 (no PD-L1), effector Fc format (controls as labelled), 1 nM): 7040; IL-2 release, K562/OKT3 (No PD-L1), CD80-IgV Fc (effector), 10 nM (Pan T cells; Pan T cells + K562/OKT3 (no PD-L1), effector Fc format (controls as labelled), 10 nM): 6335; IL-2 release, K562/OKT3 (No PD-L1), CD80-IgV Fc (effector), 100 nM (Pan T cells; Pan T cells + K562/OKT3 (no PD-L1), effector Fc format (controls as labelled), 100 nM): 5512; IL-2 release, K562/OKT3/PD-L1, CD80-IgV Fc (inert), 1 nM (Pan T cells; Pan T cells + K562/OKT3/PD-L1, inert Fc format (controls as labelled), 1 nM): <LOD; IL-2 release, K562/OKT3/PD-L1, CD80-IgV Fc (inert), 10 nM (Pan T cells; Pan T cells + K562/OKT3/PD-L1, inert Fc format (controls as labelled), 10 nM): 143; IL-2 release, K562/OKT3/PD-L1, CD80-IgV Fc (inert), 100 nM (Pan T cells; Pan T cells + K562/OKT3/PD-L1, inert Fc format (controls as labelled), 100 nM): <LOD
H18Y/A26E/E35D/V68M/A71G/D90G | 1757 | 40.0 fold | 2.41 fold | 940 RLU | 23386 | 17.2 fold | 28683 | 657.9 fold | 16.3 | –
H18Y/E35D/M47V/V68M/A71G/D90G | – | – | – | – | – | – | – | – | – | CD28 MFI at 33.3 nM (CD28 [1]; Table E23, CD80 IgV-Fc (inert) at 33.3 nM, Jurkat (CD28)): 6792; CD28 Fold change to WT CD80 (CD28 [1]; Table E23): 66.6; Fold Increase over WT CD80-IgV-Fe (CD28 [2]; Table E24, 5.0 nM): 4.8; Relative Luciferase Units (RLU), CD80 Conc 5.0 nM (CD28 [2]; Table E24, 5.0 nM): 825 RLU; CTLA4 MFI at 33.3 nM (huCTLA4; [4]): 17165; CTLA4 Fold change to WT CD80 (huCTLA4; Table E23): 12.4; PD-L1 MFI at 33.3 nM (huPD-L1; [4]): 52151; PD-L1 Fold change to WT CD80 (huPD-L1; Table E23): 316.1; Ratio of PDL1:CD28 (huPD-L1; Table E23): 7.7
H18Y/E35D/M47L/V68M/A71G | 928 | 21.1 fold | 2.19 fold | 853 RLU | 23667 | 17.4 fold | 30377 | 696.7 fold | 32.7 | –
A26E/E35D/V68M/A71G/D90G | 2102 | 47.9 fold | 2.34 fold | 912 RLU | 23286 | 17.1 fold | 26510 | 608.0 fold | 12.6 | –
